Results on 3 molecules are retold here after paper PMC9507364, “Tuning the Size of Large Dense‐Core Vesicles and Quantal Neurotransmitter Release via Secretogranin II Liquid–Liquid Phase Separation” (Advanced Science, 2022).

The term Kd denotes the constant that tells how readily two partners part at equilibrium.

The chains are these.
B1: secretogranin II (SgII), His-mCherry tag removed (natural protein, mouse, UniProt Q03517 31-617, looked up)
chain: QRNQLLQKEPDLRLENVQKFPSPEMIRALEYIEKLRQQAHREESSPDYNPYQGVSVPLQLKENGEESHLAESSRDALSEDEWMRIILEALRQAENEPPSAPKENKPYALNLEKNFPVDTPDDYETQQWPERKLKHMRFPLMYEENSRENPFKRTNEIVEEQYTPQSLATLESVFQELGKLTGPSNQKRERVDEEQKLYTDDEDDVYKTNNIAYEDVVGGEDWSPIEEKIETQTQEEVRDSKENTEKNEQINEEMKRSGQLGLPDEENRRESKDQLSEDASKVITYLRRLVNAVGSGRSQSGPNGDRAARLLQKPLDSQSIYQLIEISRNLQIPPEDLIEMLKAGEKPNGLVEPEQDLELAVDLDDIPEADLDRPDMFQSKMLSKGGYPKAPGRGMVEALPDGLSVEDILNVLGMENVVNQKSPYFPNQYSQDKALMRLPYGPGKSRANQIPKVAWIPDVESRQAPYENLNDQELGEYLARMLVKYPELLNTNQLKRVPSPVSSEDDLQEEEQLEQAIKEHLGPGSSQEMERLAKVSKRIPVGSLKNEDTPNRQYLDEDMLLKVLEYLNQEQAEQGREHLAKRAMENM
notes: signal peptide in the construct; residues 1-617 (total of 617 amino acids; 1-30 is the signal peptide); Non-tagged proteins were made by cutting off His-mCherry with PreScission protease; The SPR methods say only 'Purified SgII', without the state of the tag; also called CgC; SgII_(1–617); source: HEK293S cells, BacMam baculovirus; purified (Ni-NTA, PreScission protease, Superose 6 Increase); not …

Series [1] concerns the molecule itself. Kind of series: SEC; Superose 6 Increase 10/300 GL; 25 mM Tris pH 7.5, 500 mM NaCl; self-association.
Series [2] has as its target B1. Kind of series: SPR; Biacore T200, 25 °C; purified SgII immobilised on a CM5 chip by amine coupling; SgIII injected as analyte, 2 to 1000 nM in twofold dilutions; 25 mM Tris pH 7.5, 150 mM NaCl, 0.05% P20; dissociation constant calculated in affinity mode. To be noted: both partners purified.

As for B1, the binding result in series [1] is given as “binds”.

B2: mCherry-tagged SgII (SgII-mCherry) (natural protein, mouse, UniProt Q03517 31-617, looked up)
chain: QRNQLLQKEPDLRLENVQKFPSPEMIRALEYIEKLRQQAHREESSPDYNPYQGVSVPLQLKENGEESHLAESSRDALSEDEWMRIILEALRQAENEPPSAPKENKPYALNLEKNFPVDTPDDYETQQWPERKLKHMRFPLMYEENSRENPFKRTNEIVEEQYTPQSLATLESVFQELGKLTGPSNQKRERVDEEQKLYTDDEDDVYKTNNIAYEDVVGGEDWSPIEEKIETQTQEEVRDSKENTEKNEQINEEMKRSGQLGLPDEENRRESKDQLSEDASKVITYLRRLVNAVGSGRSQSGPNGDRAARLLQKPLDSQSIYQLIEISRNLQIPPEDLIEMLKAGEKPNGLVEPEQDLELAVDLDDIPEADLDRPDMFQSKMLSKGGYPKAPGRGMVEALPDGLSVEDILNVLGMENVVNQKSPYFPNQYSQDKALMRLPYGPGKSRANQIPKVAWIPDVESRQAPYENLNDQELGEYLARMLVKYPELLNTNQLKRVPSPVSSEDDLQEEEQLEQAIKEHLGPGSSQEMERLAKVSKRIPVGSLKNEDTPNRQYLDEDMLLKVLEYLNQEQAEQGREHLAKRAMENM
notes: signal peptide in the construct; residues 1-617 (total of 617 amino acids; 1-30 is the signal peptide); also called SgII_(1–617) tagged with mCherry; source: HEK293S cells, BacMam baculovirus; purified (Ni-NTA, Superose 6 Increase); not shown: mCherry, C-terminal, kept
For B2, the binding result in series [1] is recorded as “binds”.

B3: Secretogranin III (SgIII) (natural protein)
chain: not shown
notes: source: HEK293S cells, BacMam baculovirus; purified
For the molecule B3, the equilibrium dissociation constant (Kd) in series [2] was 21.4 nM.
